{
  "source": "patent US5683867",
  "about": "“Systematic evolution of ligands by exponential enrichment: blended SELEX” (NeXstar Pharmaceuticals, Inc.)",
  "binders": {"B1": {"name": "DNA-17 3'-end peptide conjugate (ssDNA)", "DNA": "TAGCGATACTGCGTGGGTTGGGGCGGGTAGGGCCAGCAGTCTCGTGCGGTACTTGAGCA", "modifications": "3' four 18-atom ethylene glycol spacers and thiol coupled to N-methoxysuccinyl-Ala-Ala-Pro-Val-chloromethyl ketone"}},
  "target": "neutrophil elastase (HNE) (Homo sapiens, UniProt P08246 P08246:30-267)",
  "sequence (P08246 30-267, one chain of several)": "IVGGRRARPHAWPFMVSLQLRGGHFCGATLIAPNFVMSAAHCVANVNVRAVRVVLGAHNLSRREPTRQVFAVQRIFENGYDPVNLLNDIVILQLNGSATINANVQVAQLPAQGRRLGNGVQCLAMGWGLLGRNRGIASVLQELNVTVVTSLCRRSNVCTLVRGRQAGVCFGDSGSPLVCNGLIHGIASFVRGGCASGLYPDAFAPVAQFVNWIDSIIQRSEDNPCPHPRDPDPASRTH",
  "test": "inhibition; blended ligand (end not specified for Ki); chromogenic substrate, 10 nM elastase, 2 mM MgCl2, 150 mM NaCl, 25 C; >50% inhibition at 70 nM for 3' conjugate",
  "source_text": "The assay for elastase inhibition is based on the use of a chromogenic tetrapeptide substrate. […] The rate of p-nitroanilide generation in the absence of inhibitor was used as the control.",
  "data": [
    {"binder": "B1", "values": [
      {"measurement": "Ki", "result": 30, "unit": "nM"}
    ]}
  ]
}
